Target: T1, murine DC-STAMP (dendritic cell-specific transmembrane protein) (mouse, UniProt Q7TNJ0 1-470)
T1 construct: whole, on cells; Endogenous protein; In the immunoprecipitation and immunoblot it came from cell lysates (about 50 kDa reduced, about 100 kDa non-reduced); also called mouse DC-STAMP
T1 sequence (looked up): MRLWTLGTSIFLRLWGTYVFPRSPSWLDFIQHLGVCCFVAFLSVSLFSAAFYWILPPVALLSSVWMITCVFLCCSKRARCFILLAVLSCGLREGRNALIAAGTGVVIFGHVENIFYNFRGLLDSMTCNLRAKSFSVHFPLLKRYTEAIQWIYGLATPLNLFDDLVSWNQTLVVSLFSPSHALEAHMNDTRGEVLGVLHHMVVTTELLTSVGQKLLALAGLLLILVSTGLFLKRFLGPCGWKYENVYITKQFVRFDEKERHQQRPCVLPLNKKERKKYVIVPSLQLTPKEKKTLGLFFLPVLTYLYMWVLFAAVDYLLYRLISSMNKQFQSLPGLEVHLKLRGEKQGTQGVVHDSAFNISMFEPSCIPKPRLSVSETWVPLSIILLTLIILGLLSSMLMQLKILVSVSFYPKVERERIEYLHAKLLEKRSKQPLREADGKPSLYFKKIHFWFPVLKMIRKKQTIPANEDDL
Assay: immunoprecipitation and immunoblot of RANKL-treated CD11b+ RAW 264.7 cell lysate (FIG. 1A)
Procedure: After immunoprecipitation with the 1A2 mAb, immunoblotting was performed with either the 1A2 mAb, the KR104 rabbit polyclonal antibody (positive control), or an anti-mouse IgG antibody (negative control) under non-reducing (nr: −β-mercaptoethanol) or reducing (r: +β-mercaptoethanol) conditions. M: protein marker, black and white scanned overlay. Blot is representative of 4 separate trials. […] Numbers below bands represent densitometry values used as a semiquantitative measure of relative protein level. Blot is representative of 2 separate trials.
To study surface protein expression, a mAb was generated against a peptide in the fourth extracellular domain of DC-STAMP. For comparison, a polyclonal DC-STAMP antibody was used that has histologically shown surface expression on OC (Kukita et al., J. Exp. Med. 200:941-6 (2004)). CD11b+ cells were cultured for 2 days with RANKL and extracted membrane fraction proteins for immunoprecipitation with the 1A2 mAb. […] Both antibodies also recognize a protein at double the molecular weight (˜100 kDa) under non-reducing (nr) conditions. In both reducing and non-reducing conditions, the 1A2 DC-STAMP mAb has a more intense band for the same amount of protein loaded in each lane. […] The 1A2 mAb clone was conjugated to FITC and used to determine if surface membrane DC-STAMP on CD11b+ cells could be detected by flow cytometry.

binding result: binds
B1: DC-STAMP monoclonal antibody 1A2 (antibody, V domains shown)
VH: QVTLKESGPGILQPSQTLSLTCSFSGFSLSTFGMGVGWIRQPSGKGLEWLAHIWWDDDKYYSPALKSRLTISKDTSKNQVFLKIANVDTADTATYYCVRIGSRSPFAYWGPGTLVTVSS
VL: DIVMTQAAFSNPVTLGTSASISCRSSKSLLHSNGITYLYWYLQKPGQSPQVLIYQMSNLASGVPDRFSSSGSGTDFTLRISRVEAEDVGVYYCAQNLELPWTFGGGTKLEIKR
notes: The antibody was FITC-conjugated for flow cytometry and immunofluorescence; also called 1A2 mAb; clone 1A2
